Test results published in PMC3536784 (PLoS ONE, 2013).

B1: biphenyl dioxygenase (BPDO_(B356)) α-subunit from Pandoraea pnomenusa B-356 (enzyme)
chain: MSSTMKDTQEAPVRWSRNWTPDAIRALVDQDNGKLDARIYADQDLYQLELERVFGRSWLMLGHETHIPKIGDYLTTYMGEDPVIMVRQKDQSIKVFLNQCRHRGMRIVRSDGGNAKAFTCTYHGWAYDIAGNLVNVPFEKEAFCDKKEGDCGFDKADWGPLQARVETYKGLVFANWDPEAPDLKTYLSDAMPYMDVMLDRTEAGTEAIGGIQKWVIPCNWKFAAEQFCSDMYHAGTMSHLSGVLAGLPPEMDLTQIQLSKNGNQFRSAWGGHGAGWFINDSSILLSVVGPKITQYWTQGPAAEKAARRVPQLPILDMFGQHMTVFPTCSFLPGINTIRTWHPRGPNEVEVWAFVLVDADAPEDIKEEFRLQNIRTFNAGGVFEQDDGENWVEIQRVMRGHKAKSTSLCAKMGLNVPNKNNPAYPGKTAYVYAEEAARGMYHHWSRMMSEPSWDTLKP
notes: Co-produced and co-purified with the β-subunit as the (αβ)3 oxygenase; three copies in the hexamer; Holds a Rieske Fe2S2 cluster and a mononuclear Fe(II); also called α of BphAE; source: heterologously produced and purified anaerobically as described previously [17]
B2: biphenyl dioxygenase (BPDO_(B356)) β-subunit from Pandoraea pnomenusa B-356 (enzyme, UniProt Q46373 1-186, looked up)
chain: MISTPLSKEFEWPAKPVSLELQHQVEQFYYREAQLLDHHAFQAWFALLAEDIHYWMPIRTVRTAREQGLEYVPAGANAHFDDTHATMYGRIRQKTSDLNWAEDPPSRTRHLVSNVIVREMDTPGTLEVASAFLLYRSRLERQVDVFAGERRDVLRIADNPLGFQIAKRTIILDQSTVLANNLSVFF
notes: the final models include the complete β-subunit; Co-produced and co-purified with the α-subunit as the (αβ)3 oxygenase; three copies in the hexamer; also called β of BphAE; BPDO β; source: heterologously produced and purified anaerobically as described previously [17]

Key:
[1] = biological target: the molecule itself; experiment: crystal structure; crystals grown anaerobically by sitting drop vapor diffusion (citrate pH 5.8 or MES pH 6.0), space group R3, one αβ protomer in the asymmetric unit; three αβ protomers about the crystallographic three-fold axis form the (αβ)3 hexamer; without and with biphenyl
[2] = biological target: B1; experiment: as above; details: both partners purified

| Binder | binding result [1] | binding result [2] |
| --- | --- | --- |
| B1 | binds | – |
| B2 | binds | binds |
